Here are results for two substances from paper PMC5847313.

The target in test [1] is P (Human respiratory syncytial virus) (UniProt P03421). As to conditions: cited from earlier work.
The target is the same in test [2]. Briefly: ITC. As to conditions: cited from earlier work.
The target of test [3] is RSV P D110A (untagged, from pP) (human respiratory syncytial virus, strain Long) (UniProt P12579).
The target of test [4] is RSV P D95A (untagged, from pP) (human respiratory syncytial virus, strain Long) (UniProt P12579).

Where two headings read alike, the source gives them in different places.

Turning to M2-1 (from UniProt P04545), the equilibrium dissociation constant (Kd) in test [1] was 8.1 nM; in test [2], 3000 nM.
Regarding “RSV M2-1 expressed in BSRT7/5 cells, unphosphorylated form (from UniProt P04545 1-194) (natural protein)”, the minigenome activity (firefly luciferase, pM/Luc) in BSRT7/5 cells in test [3] and in test [4] was 50 % decrease each time.
